This assay concerns the target YAP-binding domain of human TEAD4, TEAD4 217-434 (human, UniProt Q15561 217-434, biotin (N-biotinylated Avi tag)). The assay can be described thus: AlphaScreen or HTRF. A general note: In Alpha technology, singlet oxygen from a donor bead excites a nearby acceptor bead.

Sequence of YAP-binding domain of human TEAD4, TEAD4 217-434 (Q15561 217-434): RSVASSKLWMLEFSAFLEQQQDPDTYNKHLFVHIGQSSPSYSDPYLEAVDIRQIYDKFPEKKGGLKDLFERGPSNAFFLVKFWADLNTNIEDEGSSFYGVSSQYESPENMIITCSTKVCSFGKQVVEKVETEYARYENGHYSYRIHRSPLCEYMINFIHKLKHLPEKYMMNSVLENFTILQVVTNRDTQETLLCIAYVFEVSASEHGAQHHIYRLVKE

Turning to DSETDLEALFNAVMNPKTANVPQTVPMRLRKLPDSFFKPPE [YAP 60-100 (partner of TEAD4 in the TR-FRET assay)], the binding result is listed as “binds”.

The values are drawn from article PMC7784741 (Protein Science : A Publication of the Protein Society, 2020).
